Consider 1 substance from PMC5095587.

In the assay the target is ferredoxin isoform 2 from Arabidopsis thaliana (Arabidopsis thaliana) (UniProt P16972). The experiment in a line: NMR titration; 15N HSQC of labelled ferredoxin with purified FusA added at varying stoichiometry up to 1:1; buffer with 0.1% LDAO, sodium phosphate; 600 MHz.

In the case of “FusA_(1043) Δ20 (FusA from P. atrosepticum SCRI1043 lacking the 20 amino-acid N-terminal signal sequence) (from UniProt Q6CZW5 21-704) (receptor)”, the stoichiometry N came to 1.

One may read the stoichiometry N as a count of units in the complex or per binding partner.
